Source: publication PMC13348673

Columns and labels:
[1] = target: Arp2/3 complex branch junction (sheep Arp2/3 complex bound to rabbit actin mother and daughter filaments) (sheep (endogenous in brain) | rabbit) (UniProt P68135)
[2] = target: Arp2/3 complex branch junction (sheep Arp2/3 complex bound to rabbit actin mother and daughter filaments) (sheep (endogenous in brain) | rabbit) (UniProt P68135); remark: listed apart in the source
[3] = target: Arp2/3 complex branch junction (sheep Arp2/3 complex bound to rabbit actin mother and daughter filaments) (sheep (endogenous in brain) | rabbit) (UniProt P68135); experiment: microfluidics debranching assay under pulling force (TIRF microscopy of single branches); ADP-Arp2/3 branch junctions exposed to various GMF concentrations; constant average force 2.8 pN; 0.15 µM actin, 200 µM ATP; affinity from the fit of the saturation curve of the debranching rate

Row | Substance | stability (inverse debranching rate) of ADP-Arp2/3 complex branches at 6 pN with 20 nM cortactin against no cortactin [1] | debranching rate of ADP-Arp2/3 complex branch junctions against GMF concentration (2.8 pN, 0.15 µM actin, 200 µM ATP) [2] | Kd [3]
1 | Mouse cortactin full length (amino acids 1–546) (from UniProt Q60598 1-546) (natural protein) | 30 fold |  | 
2 | Recombinant N-terminal 6xHis-tagged human GMFγ (amino acids 7–140) (from UniProt O60234 7-140) (natural protein) |  | 6 fold | 30 nM
